Test results as given in publication PMC2959088.

Molecular target: human cathepsin L (human)
Assay: enzyme inhibition assay (residual activity on the fluorogenic substrate Z-Phe-Arg-MCA); cathepsin B or L (0.3 nM) incubated 5 min at 37°C with varied inhibitor in 100 mM sodium acetate pH 5.5, 2.5 mM DTT; substrate 0.01 mM; triplicate; Ki(app) by non linear regression (GraFit), Ki by Morrison's procedure

Ki: 730 pM
B1: Oryzacystatin-1 (natural protein)
chain: MSSDGGPVLGGVEPVGNENDLHLVDLARFAVTEHNKKANSLLEFEKLVSVKQQVVAGTLYYFTIEVKEGDAKKLYEAKVWEKPWMDFKELQEFKPVDASANA
